From the nanobody polyreactivity screen of Harvey et al. (2022)

assay: yeast display, Sf9 membrane polyspecificity reagent, FACS + sequencing; frameworks hold sequencing errors
Summary of the method: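 After 36–48 hours of galactose induction, yeast (Saccharomyces cerevisiae BJ5465) displaying a synthetic nanobody library were stained at 4 °C for 1 hour with 10% biotinylated, detergent-solubilized Sf9 membrane reagent. Streptavidin microbeads enriched the stained cells before FACS sorting into low and high (top ~1%) gates on anti-HA and streptavidin fluorescence. Each clone's polyreactivity label reflects its gate of origin.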

| Sequence | polyreactivity (PSR sort gate) |
| --- | --- |
| QVQLVESGGGLVQAGGSLRLSCAASGLTFHPYAMGWYRQAPGKERELVAAISSRGTSTYYADSVKGRFTISRDNAKNTVYLQMNSLKPEDTAVYYCAARHGPRAEAMYYWGQGTQVTVSS | high polyreactivity |
| QVQLVESGGGLVQAGGSLRLSCAASGLTFHQNAMGWYRKAPGKDRELVAAISRRGGSTYYADSVKGRFTFSRDNAKNTVYLQMNSLKPEDTAVYYSNTRGKSGLWCYNYWGQGTQVTVSS | high polyreactivity |
| QVQLVESGGGLVQAGGSLRLSCAASGLTFHRYAMGWYRQAPGKERELVAAINYSGGRTYYADSVKGRFTISRDNAKNTVYLQMNSLKPEHTAVYYCAAPRASGYYWGQGTQVTVSS | high polyreactivity |
| QVQLVESGGGLVQAGGSLRLSCAASGLTFHWYTMGGYRQAPGKERELVAAISSRGGSTYYADSVKGRFTISRDNAKNTDYLQMNSLKPEDTAVYYCAKARRVGFTPIYENWGQGTQVTVSS | high polyreactivity |
| QVQLVESGGGLVQAGGSLRLSCAASGLTFIFNAMGWYRQAPGKERELVADISSGVNTNYADSVKGRFTISRDNAKNTVYLQMNSLKPEDTAVYYCNARRYWLRYDYWGQGTQVTVSS | low polyreactivity |
| QVQLVESGGGLVQAGGSLRLSCAASGLTFIPNAMGWYREAPGKERELVAAISGTGGSTYYADSVKGRFTISRDNAKNTVYLLMNSLKPEDTAVYYCAARRRYKSGYWGQGTQVTVSS | high polyreactivity |
| QVQLVESGGGLVQAGGSLRLSCAASGLTFIYYAMGWYRQAPGKERELVAAISVSGGSTYYADSVKGRFTISRDNAKNTVYLQMNSLKPEDTAVYYCAADWFVHKPRYQYSFDYWGQGTQVTVSS | low polyreactivity |
| QVQLVESGGGLVQAGGSLRLSCAASGLTFKSYAMGWYRQAPGKERELVAAISWRGGRTYYADSVKGRFTISRDNAKNTVYLQMNSLKPEDTAVYYSNARSQQWWLSRYNYWGQGTQVTVSS | high polyreactivity |
| QVQLVESGGGLVQAGGSLRLSCAASGLTFKSYTMGWYRQAPGKERELVATISGSGTRTYYADSVKGRFTISRDNAKNTVYLQMNSLKPEDTAVYYCARVIWYNNYFRYSGYRSDYWGQGTQVTVSS | high polyreactivity |
| QVQLVESGGGLVQAGGSLRLSCAASGLTFKVYDMGGYRQAPGKERELVAAIWSDGDTYYADSVKGRFTISRDNAKNTVYLQMNSLKPEDTAVYYCAADPVWTVHFVFGNKYDYWGQGTQVTVSS | low polyreactivity |
| QVQLVESGGGLVQAGGSLRLSCAASGLTFKWNTMGWYRQAPGKERELVAAISWRVVSTYYADSVKGRFTISRDNAKNTFYLQMNSLKQEDTAVYYDYWGQGTQVTVSS | low polyreactivity |
| QVQLVESGGGLVQAGGSLRLSCAASGLTFKWYAMGWYRPAPGKERELVAAISRDGSTYYADSVKGRFTISRDNAKNTVYLQMNSLKPEDTAVYNCAADIWPSSLLADEYDYWGQGTQVTVSS | high polyreactivity |
| QVQLVESGGGLVQAGGSLRLSCAASGLTFKYYAMGWYRQAPGKERELVAAISWRGGSTYYADSVKGRFTISRDNAKNTVYLQMNSLKPEDTAVYYCAAPGNNVRNAPRKRDYWGQGTQVTVSS | high polyreactivity |
| QVQLVESGGGLVQAGGSLRLSCAASGLTFLKNAMGWYRQAPGKERELVAAISDGGSTNYADSVKGRFTISRDNAKNTVYLQMNSLKPEDTAVYYCAAVYTSASYGSWGQGTQVTVSS | low polyreactivity |
| QVQLVESGGGLVQAGGSLRLSCAASGLTFLRNGMGWYRQAPGKERELVASITRSGARTYYADSVKGRFTISRDNAKNTVYLQMNSLKPEDTAVSYCAARAYVSHYGVSNFGDYYWGQGTQVTVSS | high polyreactivity |
| QVQLVESGGGLVQAGGSLRLSCAASGLTFNVYAMGWSRQAPGTERELVAALTSGGRTYYADSVKGRFTISRDNEKNTVYLQMNSLKPEDTAVYYCSKSRWYGYSLSGAKRQRSFDYWGQGTQVTVSS | high polyreactivity |
| QVQLVESGGGLVQAGGSLRLSCAASGLTFNYYAMGWYRQAPGKERDLVAASTSSGSSTYYADSVKGRFTISRDNAKNTVSLQMNSLKAEDTAVYYCAVSRCSFYWLVDYWGQGTQVTVSS | high polyreactivity |
| QVQLVESGGGLVQAGGSLRLSCAASGLTFNYYAMGWYRQAPGKERELVAAITSSGGRTYYADSVKGRFTISRDNAKNTFYLQMNSLKPEDTAVYYCNTVSYRQGAVWFRYDYWGQGTQVTVSS | high polyreactivity |
| QVQLVESGGGLVQAGGSLRLSCAASGLTFNYYAMGWYRQAPGKERELVASISKRGGTYYADSVKGRFTLSRDNAKNTVYLQMNSLKPEDTAVYYCAADYWFRRNEYDYWGQGTQVTVSS | high polyreactivity |
| QVQLVESGGGLVQAGGSLRLSCAASGLTFPDYAMGWYRQAPGKERELVAAITIDGSTYYADSVKGRFTISRDNAKNTVYLQMNSLTPEDTAVYYCNAQVGVPYAMYYWGQGTQVTVSS | low polyreactivity |
| QVQLVESGGGLVQAGGSLRLSCAASGLTFPFYTMGWYRQAPGKERELVAAISRRGGSTYYADSVKGRFTISRDNAKNTVYLQLNSLKPEDTAVYYCAADKYSWYDYWGQGTQVTVSS | low polyreactivity |

| Sequence | polyreactivity (PSR sort gate) |
| --- | --- |
| QVQLVESGGGLVQAGGSLRLSCAASGLTFPHNAMGWYRQAPGKERELVAAITSSGCSTYYADSVKGRFTISRDNAMNSVYLQMNSLKPEDTAVYYCAKRDGTDRLDDYWGQGTQVTVSS | high polyreactivity |
| QVQLVESGGGLVQAGGSLRLSCAASGLTFPHYAMGWYRQAPGKERELVAAISSGGSTHYADSVKGRFTISRDNAKNTVYLQMNSLKPEDTAVYYCAARRHGRRTVQGKFDFWGQGTQVTVSS | high polyreactivity |
| QVQLVESGGGLVQAGGSLRLSCAASGLTFPIYAMGWYRQAPGKEREFVAVITTSGGSTYYSDSVKGRFTISRDNAKNTVYLQMNSLKPEDTAVYYCNARRIRHYYWGQGTQVTVSS | high polyreactivity |
| QVQLVESGGGLVQAGGSLRLSCAASGLTFPLYAMGWYRPAPGKEREFVAAITVSGVSTSYADSVKGRFTISRDNAKNTVYLQMNSLKPEDTAVYYCAADYYIWTYWDVYYWGQGTQVTVSS | high polyreactivity |
| QVQLVESGGGLVQAGGSLRLSCAASGLTFPLYAMGWYRQAPGKEREFVAAITVSGVSTSYADSVKGRFTISRDNAKNTVYLQMNSLKPEDTAVYYCAADYYIWTYWDVYYWGQGTQVTVSS | high polyreactivity |
| QVQLVESGGGLVQAGGSLRLSCAASGLTFPQYAMGWYRQAPGKERELVAAISKTGGSTYYADSVKGRFTISRDNAKNTVYLQMNSLKPEDTAVYYCAAVESGDRGQRNNYWGQGTQVTVSS | high polyreactivity |
| QVQLVESGGGLVQAGGSLRLSCAASGLTFPTNAMGRYRQAHGKESQFVAAITSRGGTTYYADSVTGRFPISRDNAKNTVYLQMNSLKPEDTAVYYCAALSVTIDQSYRYGYWGQGTQVTVSS | low polyreactivity |
| QVQLVESGGGLVQAGGSLRLSCAASGLTFPYYDMGWYRQAPGKERELVATITISGRTNYADSVKGRFTISRDNAKNTVYLQMNSLKPEDTAVYYCNARYRGRVYDRFGYWGQGTQVTVSS | high polyreactivity |
| QVQLVESGGGLVQAGGSLRLSCAASGLTFQLYAMGWYRQAPGKERELVAAISGSGGRTYYADSVKGRFTISRDNGKNTVYLLMNRLKPEDTAVYYCAARPGSGRSYTSDYWGQGTQVTVSS | high polyreactivity |
| QVQLVESGGGLVQAGGSLRLSCAASGLTFQNNAMGWYRQAPGKERELVAAISDGGSTNYADSVKGRFTISRDNAKNTVYLQMNSLKPEDTAVYYCAAVYTSASYGSWGQGTQVTVSS | low polyreactivity |
| QVQLVESGGGLVQAGGSLRLSCAASGLTFQSYAMGWYRQAPGKERELVAAISRRSGSTYYADSVKGRFTISRDNAKNTVYLQMNSLKPEDTAVYYCTTRRGERGYWGQGTQVTVSS | high polyreactivity |
| QVQLVESGGGLVQAGGSLRLSCAASGLTFQYKTMGRYRQAPGKEREFVAAITISGGTTYYADSVKGRFTISRDNAKTTVYLQMNSLKPEDTAVHYCAADFNSTERGTNMDYWGQGTQVTVSS | low polyreactivity |
| QVQLVESGGGLVQAGGSLRLSCAASGLTFQYYAMGWYRQAPGKDRELVAAISTSGGSTYYADSVKGRFTISRDYAKNTVYLQMNSLKPEDTAVYYCAARRGSQYWGQGTQVTVSS | high polyreactivity |
| QVQLVESGGGLVQAGGSLRLSCAASGLTFRDNAMGWYRQAPGKERELVAAISTNGGSTYYADSVKGRFTISRDNAKNTVYLQMNSLKPEDTAVYYCAKSFLTQYPQVDSDYWGQGTQVTVSS | low polyreactivity |
| QVQLVESGGGLVQAGGSLRLSCAASGLTFRFYAMGWYRQAPGKERELVAVISGRGTSTYYADSVKGRFTISRDNAKNTVYLLMNSLKPEDTAVYYCAARYVAYAYVGNDYWGQGTQLTVSS | high polyreactivity |
| QVQLVESGGGLVQAGGSLRLSCAASGLTFRLNAMGWYRHAPGKERELVAAITRGGRTNYADSVKGRFTISRDNAKNTVYLQMNSLKPEDTAVYYCAARYVERHTDYYYWGQGTQVTVSS | low polyreactivity |
| QVQLVESGGGLVQAGGSLRLSCAASGLTFRLNAMGWYRQAPGKERELVAAITAIGDRTYYADSVKGRFTISRDNAKNTVYLQMNSLKPEDTAVYYCNVTPRRAQVRIGNYWGQGTQVTVSS | high polyreactivity |
| QVQLVESGGGLVQAGGSLRLSCAASGLTFRRYAMGWYRQAPGKVRELVAGISRGGSTYYADSVKGRFTISRDNAKNTVYLQMNSLKPEDTAVYYCAAYNRGTYPVQPVPYDMDYWGQGTQVTVSS | low polyreactivity |
| QVQLVESGGGLVQAGGSLRLSCAASGLTFRVYAMGWYRQAPGKERELVAAITGGGGSTYADSVKGRFTISRDNAKNTVYLQMNSLKPEDTAVYYCAAASPWDRDDYWGQGTQVTVSS | low polyreactivity |
| QVQLVESGGGLVQAGGSLRLSCAASGLTFRWYAMGWYRQAPGKERELVAAISSSGRTNYADSVKGRFTISRDNAKNTVYLQMNSLKPEDTAVYYCAADSSWRTSDYWGQGTQVTVSS | low polyreactivity |
